Results reported in article PMC10292688.
Read-outs that look alike come from different tables or passages of the source.

Tests used:
Test in all cases: SAXS
AIF H454A mutant = AIF H454A mutant (UniProt O95831)
[1] = molecular target: AIF R529A mutant (Cβ-clasp) (UniProt O95831)
[2] = molecular target: AIF R529A mutant (Cβ-clasp) (UniProt O95831); remark: listed apart in the source

stoichiometry N (AIF H454A mutant)	stoichiometry N [1]	stoichiometry N [2]	Substance
2			AIF H454A mutant (from UniProt O95831 55-613) (natural protein)
	2	2	AIF R529A mutant (Cβ-clasp) (from UniProt O95831 55-613) (natural protein)
